Experiments:
[1] = target: T1, ZntR (Salmonella enterica sv. Typhimurium …, UniProt A0A0H3NSQ7 1-141); experiment: fluorescence anisotropy; apo, 5 mM EDTA; 10 nM probe, 60 mM NaCl, 240 mM KCl, 10 mM HEPES pH 7.0, anaerobic; temperature not stated; settings: protein: recombinant; chain copies: 2; label: 5' HEX on strand 1; blunt
[2] = target: T1, ZntR; experiment: fluorescence anisotropy; Co(II)-ZntR, 5 uM CoCl2; 10 nM probe, 60 mM NaCl, 240 mM KCl, 10 mM HEPES pH 7.0, anaerobic; temperature not stated; settings: protein: recombinant; chain copies: 2; label: 5' HEX on strand 1; blunt
[3] = target: T1, ZntR; experiment: fluorescence anisotropy; Zn(II)-ZntR, 1.2 eq ZnCl2; 10 nM probe, 60 mM NaCl, 240 mM KCl, 10 mM HEPES pH 7.0, anaerobic; temperature not stated; settings: protein: recombinant; chain copies: 2; label: 5' HEX on strand 1; blunt
[4] = target: T2, Zur (Salmonella enterica sv. Typhimurium …, UniProt A0A0H3NVF0 1-171); experiment: fluorescence anisotropy; Co(II)-Zur, 1 uM CoCl2; 10 nM probe, 60 mM NaCl, 240 mM KCl, 10 mM HEPES pH 7.0, anaerobic; temperature not stated; settings: protein: recombinant; chain copies: 4; label: 5' HEX on strand 1; blunt
[5] = target: T2, Zur; experiment: fluorescence anisotropy; Zn(II)4-Zur, 1 uM ZnCl2; 10 nM probe, 60 mM NaCl, 240 mM KCl, 10 mM HEPES pH 7.0, anaerobic; temperature not stated; settings: protein: recombinant; chain copies: 4; label: 5' HEX on strand 1; blunt
[6] = target: T2, Zur; experiment: fluorescence anisotropy; Zn(II)2-Zur (tightest two exchangeable sites filled); 10 nM probe, 60 mM NaCl, 240 mM KCl, 10 mM HEPES pH 7.0, anaerobic; temperature not stated; settings: protein: recombinant; chain copies: 4; label: 5' HEX on strand 1; blunt

| Binder | Kd [1] | Kd [2] | Kd [3] | Kd [4] | Kd [5] | Kd [6] |
| --- | --- | --- | --- | --- | --- | --- |
| zntAPro (dsDNA) DNA 1: CTTGACTCTGGAGTCGACTCCAGAGTGTATCCTC DNA 2: GAGGATACACTCTGGAGTCGACTCCAGAGTCAAG | 1100 nM | 340 nM | 650 nM | – | – | – |
| znuAPro (dsDNA) DNA 1: TAGAATGTTATAATATCACATTTCACACATTCA DNA 2: TGAATGTGTGAAATGTGATATTATAACATTCTA | – | – | – | 31 nM | 54 nM | 41 nM |
